The values that follow come from patent US20230054956A1 (VANDERBILT UNIVERSITY, published 2023).

First the molecules themselves.
T1: GII.4 Sydney 2012 virus-like particles (VLPs), based on strain AFV08795.1 (human norovirus GII.4 Sydney 2012, UniProt P54635 1-538, The particle is a multimeric assembly of VP1 with a little VP2 inside; one VP1 chain is given.)
T1 construct: VLP assembled from VP1 and VP2 in baculovirus/Sf9 cells; also called GII.4 VLPs
T1 chain: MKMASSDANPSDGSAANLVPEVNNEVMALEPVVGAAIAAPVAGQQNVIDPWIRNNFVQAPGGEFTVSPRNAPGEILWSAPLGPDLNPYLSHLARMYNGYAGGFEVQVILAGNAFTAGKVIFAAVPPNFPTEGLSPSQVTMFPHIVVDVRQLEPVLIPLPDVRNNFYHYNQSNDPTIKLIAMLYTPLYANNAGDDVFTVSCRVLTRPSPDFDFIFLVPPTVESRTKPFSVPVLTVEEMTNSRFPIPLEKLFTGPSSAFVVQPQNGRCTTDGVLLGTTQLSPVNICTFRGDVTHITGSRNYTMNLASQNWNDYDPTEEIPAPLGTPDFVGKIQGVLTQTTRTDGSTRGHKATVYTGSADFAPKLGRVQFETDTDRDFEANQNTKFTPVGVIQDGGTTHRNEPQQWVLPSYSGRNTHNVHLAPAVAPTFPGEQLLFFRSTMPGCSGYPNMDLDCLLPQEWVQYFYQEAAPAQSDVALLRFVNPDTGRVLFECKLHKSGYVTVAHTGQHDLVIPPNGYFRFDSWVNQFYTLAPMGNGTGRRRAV

B1: NORO-327A (antibody, V domains shown)
VH: QVQLEVSGGGLVKPGGSLRLSCAASGFTFTDYYMSWIRQAPGKGLEWVAYISGIMSSTKYADSVKGRFTISRDNGKNSVYLQMNSLTAEDTAVYYCARERVEPPSAVTDFWGQGTLVTVSS
VL: QSVLTQSPSVSGAPGQRVTISCTGTSSNIGAGYDVHWYQQFPGTAPKLLISHNTNRPSGVPDRFSGSKSGTSASLAITGLQAEDEADYYCQSFDSSLRGSRVFGGGTKLTVL
notes: human hybridoma mAb; IgG, lambda
B2: NORO-246A (antibody, V domains shown)
VH: EVHLVESGGGLVKPGGSLRLSCAASGFTFSRYGMHWVRQAPGKGLEWVSSIVIRSDYKYYADSVKGRFTISRDNAKNSLYLQMNSLRADDTAVYYCARDLVEPGITPVGCDYWGRGTLVTVSS
VL: SNELTQAPSVSVSPGQTARITCFGDALANQYSYWYQRKPGQAPVLVIYKDSERPSGIPQRFSASNSGTTVTLTITGVQAEDEADYFCQSADSTGIYKVFGGGTKLTVL
notes: as for B1
B3: NORO-232A.2 (antibody, V domains shown)
VH: QVQLKQWGAGLLKSSETLSLTCAFNGNSFGAFYWSWIRLSPGKGLEWIGEVNYLGGADYNPSLKSRVTMSADTSKRQFSLSLKSVTAADTGVYFCARGRPHDYSPGSYSRPRRYYGLDVWGQGTTVTVSS
VL: EIVLTQSPATLSLSPGDSATLSCRASQAVSTTYLAWYQQTRGQAPRLLIHGTYTRAIGIPDKFSGTGSGTDFTLTISGLAPEDFAVYYCQQYSSSPYTFGQGTKIEIT
notes: human hybridoma mAb; IgA, kappa; in both panels
B4: NORO-317 (antibody, V domains shown)
VH: QVQLVESGGGLVKPGGSLRLSCVASGFTFSDYYISWVRQAPGKGLEWVSYISAINSYTNYADSVRGRFTVSRDNAKKSVFLQMNSLRVDDTAVYYCARDVGGSVRYSSNSNKKSYNYFDPWGQGTLVTVSS
VL: SYELTQPPSVSVSPGQTATITCSGDVLSKEFAYWYQQKPGQAPVLVIYKDNERPSGIPERFSGSTSGTTVTLTISGVLAEDEAHYYCQSVDTRGTYKVFGGGTKLTVL
B5: NORO-273A (antibody, V domains shown)
VH: QVQLVQSGAEVKKPGASVKISCKASGYDFTSFPMHWVRLGPGQRLEWMGWISAANGNTKYSQKFQDRFTITRDTSASIVHMELSSLRSEDTAVYYCARGGYSSGLYRYSNYYYGMTVWGQGTLVTVSS
VL: DIVMTQTPLSLSVTPGQPASISCKSSESLLHNDRKTYLFWYLQKPGQPPQLLIFQVSNRFSGVPDRFSGSGSGTDFTLRISRVEAEDVGIYYCLQTTQLPLTFGGGTKVEIK
B6: NORO-312A (antibody, V domains shown)
VH: QVQLVESGGALVKPGESLRLSCAASGFTFSDSYMSWIRQAPGKGLEWVAYISGIMSSTNYADSVKGRFTISRDNGKNSVYLQMNNLRAEDTAVYYCARDAQYCSGGRCYLVFDYWGQGTLVTVSS
VL: QSVLTQPPSVSGAPGQRVTISCTGSSSNIGAGYEVHWYQQLPGAAPKLIIYGNNNRPSGVPDRFSGSKSGTSASLAITGLQADDEADYYCQSYDNRLRVFGGGTKLTVL
B7: NORO-303 (antibody, V domains shown)
VH: QVQLVESGGGVVQPGRSLRLSCAASGFIFSSYAMHWVRQAPGKGLEWVAVMSYDGNNKYYADSVKGRFTISRDNSKNTLFLQMNSLRPEDTAVYYCARDCRVGWVFTYGMDVWGQGTLVTVSS
VL: QSALTQPPSASGSPGQSVTISCTGTSSDVGGYNYVSWYQQHPGKAPKLMMYEISKRPSGVPIRFSGSKSGNTASLTVSGLQAEDEADYYCSSYAGTYNCVVFGGGTKLTVL
B8: NORO-296A (antibody, V domains shown)
VH: QVQLVESGGGLVKPGGSLRLSCAASGFTFSEYYMSWVRQAPGKALEWVSYITSSFSSTSYADSVKGRFVISRDNAKNSLYLQMNSLRVEDTAVYYCARYGAEYGSRSFYFLDWGQGTLVTVSS
VL: QSVLTQPPSVSGAPEQRVTISCTGSSSNIGAGYDVHWYQVLPGIAPKLLIYDNNKRPSGVPDRFSGSKSGTSASLAITGLQAEDEADYYCQSYDSRLSSNVVFGGGTKLTVL
B9: NORO-278 (antibody, V domains shown)
VH: QVQLVESGGGVVQPGRSLRLSCAASGFTFSSYGMHWVRQAPGKGLEWVAVISYDGSNKYYADSVKGRFTISRDNSKNTLYLQMNSLRAEDTAVYYCAKVTIIAAADLLDYWGQGTLVTVSS
VL: QSVLTQPPSVSGAPGQRVTISCTGSSSNIGAGYDVHWYQQLPGTAPKLLIYGNSNRPSGVPDRFSGSKSGTSASLAITGLQAEDEADYYCQSYDSSLSGPVVFGGGTKLTVL
B10: NORO-251A (antibody, V domains shown)
VH: QVQLVESGGGVVQPGRSLRLSCAASGFTFRSYGIHWVRQAPGKGLEWVALISYDGSSKYYADSVKGRFTISRDNSKNTLYLQMNSLRSEDTAVYYCAKVRLTSYSIGWFSFDYWGQGTLVTVSS
VL: QSVLTQPPSVSAAPGQKVTISCSGSSSNIANYYVSWYQQLPGRAPKLLIYDNNKRPSGIPDRISGSKSGTSATLGITGLQTGDEADYYCGTWDTSLSAWVFGGGTKLTVL
B11: NORO-315B (antibody, V domains shown)
VH: QVQLVESGGGLVKPGGSLRLSCVASGFTFSDYYMTWFRQTPGRGLEWLSYISAIGGYTEYADSVKSRFIISRDNGKKSLYLQMNSLRAEDSGVYYCAREDCHGTSCYSGDWGQGTLVTVSS
VL: QSVLTQPPSVSGAPGQRVTISCTGSSSNIGAGYDVHWYQQLPGTAPKLLIYHNTNRPSGVPDRFSGSKSGTSAYLTITGLQAEDEADYYCQSYDRSLSKSRVFSGGTKLTVL
B12: NORO-250B (antibody, V domains shown)
VH: QVQLVESGGGLVKPGGSLTLSCAASGFTFSDYYMNWIRQAPGKRLEWVSYISGIMSSTNYADSVKGRFTISRDTAKKSVYLQMNSLRAEDTAVYYCARATSQGATSYYFDSWGQGTLVTVSS
VL: QSVLTQPPSVSGAPGQRVTISCTGSSSNIGADYDVHWYQQLPGAAPRLLIYADINRPSGVPDRFSGSKSGTSASLAITGLQAEDEADYYCQSYDRSVSGSAVFGGGTKVTVL
B13: NORO-256A (antibody, V domains shown)
VH: QVQLVESGGGVVQAGRSLRLSCAASGFTFRSYGMHWVRQAPGKGLEWVAIISYDGGSKYYADSVKGRFTISRDNSKNTLYLQMNSLRVEDTALYYCAKDFLRVYSYGWHSFDIWGLGTLVTVSS
VL: QSVLTQPPSVSAAPGQRVTISCSGSSSNIGTYYVSWYQHLPGTAPKLLIYDNDKRPSGIPDRFSASKSGTSATLDIAGLQTGDEADYYCGTWDLSLTAGWVFGGGTKLTVL
B14: NORO-123 (antibody, V domains shown)
VH: QVQLVESGGGVVQPGRSLRLSCSTSGFTFSQYPMHWVRQAPGKGLEWVALISYDGMNKYYADSVRGRFTISRDNSENTQYLQMNSLRGDDTAVYYCARVTGDCTGNRCSYWAYYYYGLDVWGQGTLVTVSS
VL: QSALTQPPSASGSPGQSVTISCTGTSSDVGGYKYVSWYQQHPGKAPKLMIYEVTRRPSGVPDRFSGSKSGNTAFLTVSGLQAEDEADYYCGSYAGSTTSGYVFGTGTKVIVL
B15: NORO-279A (antibody, V domains shown)
VH: QVQLVESGGGVVQPGRSLRLSCAASGFTFTKYGMHWVRQAPGKGLEWVAFIAYDGSVKYYGDSAKGRFAISRDNPKNTVYLQMNSLRAEDTAVYYCAKVEIHYYSNSLLGMDVWGQGTLVTVSS
VL: QSVLTQPPSASGTPGQRVTISCSGGNSNIGISYVYWYQHLPGTAPKLLISKNNLRPSGVPDRFSASKSGTSASLAISGLRSEDEAEYYCATLDINMTWVFGGGTKLTVL
B16: NORO-202A.1 (antibody, V domains shown)
VH: QVQLVQSGAEVKKPGASVKVSCKASEYTFTGYYLQWVRQAPGHGLEWMGWINPSGGTKYSQKFQGRVTMTRDTSITTVYMELSRLRSDDTAVYYCARDLLRNWGDHDAFDVWGQGTMVTVSS
VL: QSVLTQPPSASETPGQGVTISCSGSSSNIGSNFVCWYQQVPGTAPKLLIYKNNQRPSGVPDRFSGSKSGTSASLAISGLRSEDEADYYCSAWDDSLSGPVFGGGTKLTVL
B17: NORO-313.1 (antibody, V domains shown)
VH: QVQLVESGGGLVKPGGSLRLSCAASGFTFSDFYMSWIRQAPGKGLEWVGYISSIAGATNYADSVKGRFTISRDSSKRSLYLQMNSLRVEDTAVYYCARMGRLELERRPHYYYPLDVWGQGTLVTVSS
VL: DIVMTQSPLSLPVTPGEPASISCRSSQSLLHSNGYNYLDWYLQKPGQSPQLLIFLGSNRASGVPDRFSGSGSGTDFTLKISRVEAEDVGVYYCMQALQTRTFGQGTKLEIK
B18: NORO-310A (antibody, V domains shown)
VH: EVQLVESGGGLVRPGESLRLSCVASGFSVSDNYMSWVRQAPGKGLQWVSVIYSGGTTFYTDSVKGRFTISRDKSKNTLFLQMNSLRAEDTAVYFCTRDPSQYYDSRGHYYQTFTPSFDSWGQGTLVTVSS
VL: DIQMTQSPSVMSASVGDRVTITCRASQDISDYLAWFQQKPGKVPKRLIYAASSLQNGVPSRFSGSGSGTEFTLTISSLQPEDFATYYCLQHDTYPLTFGGGTKVEIK
B19: NORO-263 (antibody, V domains shown)
VH: QVQLVESGGGLVKPGGSLRLSCAASGFTLSDYYMSWIRQAPGKGLEWVAYISSSHTSTYYRDSVKGRFTISRDSAKKSLYLQMNSLRVEDTAIYYCARDWVGGRSAYSDHWGQGTLVTVSS
VL: SYELTQPPSVSVSPGQTARITCSGDALPRRPAFWYQQKSGQAPVLVMYDDSKRPSGIPERFSGSSSGTVATLTISGAQVEDEADYHCYSTDSSGKERVFGGGTKLTVL

The target in the first experiment is T1, GII.4 Sydney 2012 virus-like particles …. In words: indirect ELISA, VLP coated. On the technique in general: In an ELISA, binding on a coated surface is turned into a signal by an enzyme label.
Turning to B1, the EC50 is 0.6 µg/mL.

Regarding B2, it took 0.2 µg/mL to reach a half-maximal effect (EC50).

Molecule B3 returned a concentration giving a half-maximal response (EC50) of 0.3 µg/mL.

Another experiment concerns the target GII.4 Sydney 2012 virus-like particles (VLPs), based on strain AFV08795.1 (human norovirus GII.4 Sydney 2012, UniProt P54635 1-538, The particle is a multimeric assembly of VP1 with a little VP2 inside; one VP1 chain is given.). Description: indirect ELISA, VLP coated.
B4 showed an EC50 of 0.4 µg/mL.

Consider B5, for which the EC50 worked out at 0.2 µg/mL.

B6 showed an EC50 of 0.4 µg/mL.

For the molecule B7, the EC50 is 0.5 µg/mL.

Molecule B8 came in with an EC50 of 0.6 µg/mL.

As for B9, the EC50 is 4 µg/mL. This EC50 lies about 6.7-fold higher than the previous one.

Regarding B10, the EC50 stood at 0.9 µg/mL.

For the molecule B11, the EC50 came out at 0.7 µg/mL.

B12 displayed an EC50 of 0.2 µg/mL.

As to B13, the EC50 was 0.9 µg/mL.

The molecule B14 had an EC50 of 5.4 µg/mL.

Molecule B15 displayed an EC50 of 0.2 µg/mL. Against the preceding molecule, the EC50 is about 27-fold lower.

As for B16, a half-maximal response (EC50) required 0.4 µg/mL.

The molecule B17 yielded an EC50 of 0.1 µg/mL. Compared with the last molecule, the EC50 is about 4-fold lower.

For B18, a half-maximal effect (EC50) was put at 6.2 µg/mL.

B19 returned an EC50 of 0.6 µg/mL.

Usually EC50 stands for the concentration at which the effect is half-maximal. A low value points to an effect from little substance.
